Source: paper PMC7897678 (Frontiers in Immunology, 2020)

Target: T1, C1q isolated from mouse serum (mouse, UniProt P98086 23-245; P14106 26-253; Q02105 30-246)
T1 construct: complement C1q subcomponent chain A (C1qA), mouse; complement C1q subcomponent chain B (C1qB), mouse; complement C1q subcomponent chain C (C1qC), mouse; also called purified C1q; copies: 6 + 6 + 6
Experiment: ELISA; NP1, NP2 or PTX3 coated (10 µg/ml in PBS, overnight 4 °C), blocked with 4% BSA in PBS-T; C1q 5.6–45 µg/ml in PBS, 1 h at RT; bound C1q detected with anti-C1qb antibody
Conditions: both partners purified

T1 sequence (P98086 23-245, chain 1 of 3): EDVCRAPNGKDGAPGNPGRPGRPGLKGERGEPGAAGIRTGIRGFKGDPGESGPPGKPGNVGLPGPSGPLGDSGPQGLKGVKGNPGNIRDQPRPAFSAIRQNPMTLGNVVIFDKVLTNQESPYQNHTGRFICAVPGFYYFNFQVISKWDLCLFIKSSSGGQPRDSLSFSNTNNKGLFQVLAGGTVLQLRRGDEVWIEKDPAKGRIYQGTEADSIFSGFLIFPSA
T1 sequence (P14106 26-253, chain 2 of 3): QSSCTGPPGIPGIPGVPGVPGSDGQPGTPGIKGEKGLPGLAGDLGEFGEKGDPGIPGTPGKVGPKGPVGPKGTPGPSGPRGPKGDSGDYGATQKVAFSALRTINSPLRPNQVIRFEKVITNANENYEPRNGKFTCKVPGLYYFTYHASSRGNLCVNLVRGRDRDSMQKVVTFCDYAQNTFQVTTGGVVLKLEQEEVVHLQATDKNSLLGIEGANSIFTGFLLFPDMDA
T1 sequence (Q02105 30-246, chain 3 of 3): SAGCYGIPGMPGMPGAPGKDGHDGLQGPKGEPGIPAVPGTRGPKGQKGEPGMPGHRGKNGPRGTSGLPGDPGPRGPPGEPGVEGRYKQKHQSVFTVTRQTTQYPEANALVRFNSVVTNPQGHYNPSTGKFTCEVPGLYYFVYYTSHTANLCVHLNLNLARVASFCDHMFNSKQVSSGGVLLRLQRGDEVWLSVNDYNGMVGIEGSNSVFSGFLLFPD

Row | Binder | binding result
1 | Recombinant human His-tagged neuronal pentraxin 1 (natural protein, UniProt Q15818 23-432, looked up, neuronal pentraxin 1 (NP1), human, recombinant; see the vendor's data sheet; also called NP1; NPs (with NP2); source: bought: R&D Systems (7707-NP-050)) QDFGPTRFICTSVPVDADMCAASVAAGGAEELRSSVLQLRETVLQQKETILSQKETIRELTAKLGRCESQSTLDPGAGEARAGGGRKQPGSGKNTMGDLSRTPAAETLSQLGQTLQSLKTRLENLEQYSRLNSSSQTNSLKDLLQSKIDELERQVLSRVNTLEEGKGGPRNDTEERVKIETALTSLHQRISELEKGQKDNRPGDKFQLTFPLRTNYMYAKVKKSLPEMYAFTVCMWLKSSATPGVGTPFSYAVPGQANELVLIEWGNNPMEILINDKVAKLPFVINDGKWHHICVTWTTRDGVWEAYQDGTQGGSGENLAPYHPIKPQGVLVLGQEQDTLGGGFDATQAFVGELAHFNIWDRKLTPGEVYNLATCSTKALSGNVIAWAESHIEIYGGATKWTFEACRQIN | binds
2 | Recombinant human His-tagged neuronal pentraxin 2 (natural protein, UniProt P47972 16-431, looked up, neuronal pentraxin 2 (NP2), human, recombinant; see the vendor's data sheet; also called NP2; NPs (with NP1); source: bought: R&D Systems (7816-NP-050)) GAQDSPAPGSRFVCTALPPEAVHAGCPLPAMPMQGGAQSPEEELRAAVLQLRETVVQQKETLGAQREAIRELTGKLARCEGLAGGKARGAGATGKDTMGDLPRDPGHVVEQLSRSLQTLKDRLESLEHQLRANVSNAGLPGDFREVLQQRLGELERQLLRKVAELEDEKSLLHNETSAHRQKTESTLNALLQRVTELERGNSAFKSPDAFKVSLPLRTNYLYGKIKKTLPELYAFTICLWLRSSASPGIGTPFSYAVPGQANEIVLIEWGNNPIELLINDKVAQLPLFVSDGKWHHICVTWTTRDGMWEAFQDGEKLGTGENLAPWHPIKPGGVLILGQEQDTVGGRFDATQAFVGELSQFNIWDRVLRAQEIVNIANCSTNMPGNIIPWVDNNVDVFGGASKWPVETCEERLLDL | binds
